Publication PMC3600295

How the values were obtained:
human alpha-thrombin [1] = biological target: T1, human alpha-thrombin (Homo sapiens, UniProt P00734;P00734 315-363;364-622); experiment: potentiometric aptasensor; SWCNT transducer; LOD 80 nM, 8.03 mV/decade (not a Kd); PBS listed as reagent; salt, pH and temperature of the potentiometric assay not given in the material
human alpha-thrombin [2] = biological target: T1, human alpha-thrombin; experiment: potentiometric aptasensor; PANI transducer; LOD 71 nM, 2.97 mV/decade (not a Kd); PBS listed as reagent; salt, pH and temperature of the potentiometric assay not given in the material

GGTTGGTGTGGTTGG (structured_DNA, 5'-NH2, coupled to SWCNT carboxyl groups) [TBA 15-mer, 5'-NH2 (SWCNT sensor)]
binding result (human alpha-thrombin [1]): binds

GGTTGGTGTGGTTGG (structured_DNA, 5'-SH, coupled to polyaniline) [TBA 15-mer, 5'-SH (PANI sensor)]
binding result (human alpha-thrombin [2]): binds
